# Measured values: PMC10397247
# Like-named read-outs stand apart in the source and are kept apart here.
# Assays:
# [1] = biological target: T1, 4H2621-AA; experiment: two-hybrid library CCmax;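 note: natural log of median RNA to DNA barcode read ratio; higher means stronger binding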
# T1 chain: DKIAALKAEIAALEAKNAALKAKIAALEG
# [2] = biological target: T2, 4H2699-AA; experiment: two-hybrid library CCmax;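 note: natural log of median RNA to DNA barcode read ratio; higher means stronger binding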
# T2 chain: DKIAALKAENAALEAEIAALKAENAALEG
# [3] = biological target: T3, 4H2728-AA; experiment: two-hybrid library CCmax; conditions: mean of both orientations;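 note: natural log of median RNA to DNA barcode read ratio; higher means stronger binding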
# T3 chain: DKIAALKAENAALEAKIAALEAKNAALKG
# [4] = biological target: T4, 4H2760-AA; experiment: two-hybrid library CCmax; conditions: mean of both orientations;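 note: natural log of median RNA to DNA barcode read ratio; higher means stronger binding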
# T4 chain: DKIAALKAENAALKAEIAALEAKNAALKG
# [5] = biological target: T5, 4H2774-AA; experiment: two-hybrid library CCmax; conditions: mean of both orientations;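 note: natural log of median RNA to DNA barcode read ratio; higher means stronger binding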
# T5 chain: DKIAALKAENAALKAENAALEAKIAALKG
# [6] = biological target: T6, 4H2903-AA; experiment: two-hybrid library CCmax; conditions: mean of both orientations;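 note: natural log of median RNA to DNA barcode read ratio; higher means stronger binding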
# T6 chain: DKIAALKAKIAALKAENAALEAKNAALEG
# [7] = biological target: T7, 4H2947-AA; experiment: two-hybrid library CCmax; conditions: mean of both orientations
# T7 chain: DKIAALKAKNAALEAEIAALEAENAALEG
# [8] = biological target: T8, 4H2961-AA; experiment: two-hybrid library CCmax; conditions: mean of both orientations
# T8 chain: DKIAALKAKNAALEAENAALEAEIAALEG
# [9] = biological target: T9, 4H3049-AA; experiment: two-hybrid library CCmax; conditions: mean of both orientations
# T9 chain: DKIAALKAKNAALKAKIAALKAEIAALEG
# [10] = biological target: T10, 4H3094-AA; experiment: two-hybrid library CCmax; conditions: mean of both orientations
# T10 chain: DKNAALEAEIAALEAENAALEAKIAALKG
# [11] = biological target: T11, 4H3129-AA; experiment: two-hybrid library CCmax
# T11 chain: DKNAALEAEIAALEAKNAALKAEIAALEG
# [12] = biological target: T12, 4H324-AA; experiment: two-hybrid library CCmax; conditions: mean of both orientations
# T12 chain: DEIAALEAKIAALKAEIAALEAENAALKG
# [13] = biological target: T13, 4H341-AA; experiment: two-hybrid library CCmax; conditions: mean of both orientations
# T13 chain: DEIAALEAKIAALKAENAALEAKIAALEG
# [14] = biological target: T14, 4H3414-AA; experiment: two-hybrid library CCmax; conditions: mean of both orientations
# T14 chain: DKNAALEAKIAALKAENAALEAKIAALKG
# [15] = biological target: T15, 4H3449-AA; experiment: two-hybrid library CCmax; conditions: mean of both orientations
# T15 chain: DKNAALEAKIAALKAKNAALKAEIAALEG
# [16] = biological target: T16, 4H3595-AA; experiment: two-hybrid library CCmax; conditions: mean of both orientations
# T16 chain: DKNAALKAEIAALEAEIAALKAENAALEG
# [17] = biological target: T17, 4H3619-AA; experiment: two-hybrid library CCmax; conditions: mean of both orientations
# T17 chain: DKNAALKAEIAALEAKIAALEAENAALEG
# [18] = biological target: T18, 4H3629-AA; experiment: two-hybrid library CCmax; conditions: mean of both orientations
# T18 chain: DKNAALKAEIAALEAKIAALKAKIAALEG
# [19] = biological target: T19, 4H3777-AA; experiment: two-hybrid library CCmax; conditions: mean of both orientations
# T19 chain: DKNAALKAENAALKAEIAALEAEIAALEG
# [20] = biological target: T20, 4H3782-AA; experiment: two-hybrid library CCmax; conditions: mean of both orientations
# T20 chain: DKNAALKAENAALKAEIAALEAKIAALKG
# [21] = biological target: T21, 4H380-AA; experiment: two-hybrid library CCmax; conditions: mean of both orientations
# T21 chain: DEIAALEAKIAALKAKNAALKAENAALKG
# [22] = biological target: T22, 4H3915-AA; experiment: two-hybrid library CCmax; conditions: mean of both orientations
# T22 chain: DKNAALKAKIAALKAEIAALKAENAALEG
# [23] = biological target: T23, 4H3939-AA; experiment: two-hybrid library CCmax; conditions: mean of both orientations
# T23 chain: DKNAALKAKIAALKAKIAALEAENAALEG
# [24] = biological target: T24, 4H3969-AA; experiment: two-hybrid library CCmax; conditions: mean of both orientations
# T24 chain: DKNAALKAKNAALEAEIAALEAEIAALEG
# [25] = biological target: T25, 4H3974-AA; experiment: two-hybrid library CCmax; conditions: mean of both orientations
# T25 chain: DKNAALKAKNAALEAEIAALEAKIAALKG
# [26] = biological target: T26, 4H432-AA; experiment: two-hybrid library CCmax; conditions: mean of both orientations
# T26 chain: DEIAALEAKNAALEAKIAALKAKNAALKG
# [27] = biological target: T27, 4H446-AA; experiment: two-hybrid library CCmax; conditions: mean of both orientations
# T27 chain: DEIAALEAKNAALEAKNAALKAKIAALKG
# [28] = biological target: T28, 4H464-AA; experiment: two-hybrid library CCmax; conditions: mean of both orientations
# T28 chain: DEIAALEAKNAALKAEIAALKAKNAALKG
# [29] = biological target: T29, 4H483-AA; experiment: two-hybrid library CCmax; conditions: mean of both orientations
# T29 chain: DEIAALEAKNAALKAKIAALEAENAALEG
# [30] = biological target: T30, 4H63-AA; experiment: two-hybrid library CCmax; conditions: mean of both orientations
# T30 chain: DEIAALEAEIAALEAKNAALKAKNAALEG
# [31] = biological target: T31, 4H2580-AA; experiment: two-hybrid library CCmax
# T31 chain: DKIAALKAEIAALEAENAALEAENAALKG
# [32] = biological target: T32, 4H2604-AA; experiment: two-hybrid library CCmax; conditions: mean of both orientations
# T32 chain: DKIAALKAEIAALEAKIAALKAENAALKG
# [33] = biological target: T33, P6SC1; experiment: two-hybrid library CC1; conditions: mean of both orientations
# T33 chain: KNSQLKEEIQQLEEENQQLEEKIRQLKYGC
# [34] = biological target: T34, P6SC2; experiment: two-hybrid library CC1; conditions: mean of both orientations
# T34 chain: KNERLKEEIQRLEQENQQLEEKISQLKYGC
# [35] = biological target: T35, P6; experiment: two-hybrid library CC1
# T35 chain: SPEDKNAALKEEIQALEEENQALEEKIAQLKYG
# [36] = biological target: T36, P6mS; experiment: two-hybrid library CC1; conditions: mean of both orientations
# T36 chain: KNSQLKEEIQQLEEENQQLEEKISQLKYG
# [37] = biological target: T37, P7; experiment: two-hybrid library CC1; conditions: mean of both orientations
# T37 chain: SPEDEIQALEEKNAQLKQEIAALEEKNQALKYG
# [38] = biological target: T38, P7mS; experiment: two-hybrid library CC1; conditions: mean of both orientations
# T38 chain: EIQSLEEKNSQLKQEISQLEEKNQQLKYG
# [39] = biological target: T39, P8; experiment: two-hybrid library CC1; conditions: mean of both orientations
# T39 chain: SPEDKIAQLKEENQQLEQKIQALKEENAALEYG
# [40] = biological target: T40, P8mS; experiment: two-hybrid library CC1; conditions: mean of both orientations
# T40 chain: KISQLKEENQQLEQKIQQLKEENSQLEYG
# [41] = biological target: T41, P9; experiment: two-hybrid library CC1; conditions: mean of both orientations
# T41 chain: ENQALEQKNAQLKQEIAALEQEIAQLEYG
# [42] = biological target: T42, 4H3414-bN; experiment: two-hybrid library CCNG1
# T42 chain: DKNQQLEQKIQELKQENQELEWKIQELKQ
# [43] = biological target: T43, 4H3631-bN; experiment: two-hybrid library CCNG1
# T43 chain: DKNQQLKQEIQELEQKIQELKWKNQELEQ
# [44] = biological target: T44, 4H3638-bN; experiment: two-hybrid library CCNG1
# T44 chain: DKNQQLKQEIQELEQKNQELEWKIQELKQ
# [45] = biological target: T45, 4H3817-bN; experiment: two-hybrid library CCNG1
# T45 chain: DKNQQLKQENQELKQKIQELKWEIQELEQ
# [46] = biological target: T46, 4H3974-bN; experiment: two-hybrid library CCNG1
# T46 chain: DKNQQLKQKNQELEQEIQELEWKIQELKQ
# [47] = biological target: T47, 4H570-bN; experiment: two-hybrid library CCNG1
# T47 chain: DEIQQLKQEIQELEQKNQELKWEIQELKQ
# [48] = biological target: T48, 4H584-bN; experiment: two-hybrid library CCNG1
# T48 chain: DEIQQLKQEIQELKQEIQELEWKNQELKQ
# [49] = biological target: T49, 4H619-bN; experiment: two-hybrid library CCNG1
# T49 chain: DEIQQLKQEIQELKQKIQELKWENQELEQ
# [50] = biological target: T50, 4H850-bN; experiment: two-hybrid library CCNG1
# T50 chain: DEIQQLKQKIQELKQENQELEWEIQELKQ
# [51] = biological target: T51, 4H906-bN; experiment: two-hybrid library CCNG1
# T51 chain: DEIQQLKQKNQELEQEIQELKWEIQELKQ
interaction score ([2]; mean of both orientations),interaction score [3],interaction score [4],interaction score [5],interaction score [6],interaction score [7],interaction score [8],interaction score [9],interaction score [13],interaction score [14],interaction score [16],interaction score [18],interaction score [20],interaction score [21],interaction score [23],interaction score [24],interaction score [27],interaction score [28],interaction score [29],interaction score [30],Binder,other results
-0.173,1.6,-0.432,-0.116,1.71,-1.47,-0.217,0.214,2.39,2.21,0.312,0.71,-1.63,-0.998,-0.531,-1.35,-1.41,-1.44,-1.55,-0.787,DKIAALKAEIAALEAKNAALKAKIAALEG [4H2621-AA],interaction score [1]: 1.1; interaction score [10]: 1.09; interaction score [11]: -1.64; interaction score [12]: 1.33; interaction score [15]: -0.832; interaction score [17]: 0.162; interaction score [19]: -1.64; interaction score [22]: -1.18; interaction score [25]: -0.826; interaction score [26]: -1.5
-1.81,-1.69,-1.47,-1.28,-0.221,-1.82,-1.82,-0.107,0.477,-1.09,-1.29,-0.787,-1.52,1.77,-0.303,-1.28,-1.11,-0.738,-1.33,0.964,DKIAALKAEIAALEAENAALEAENAALKG [4H2580-AA],interaction score [31]: 0.179; interaction score [32]: 1.41; interaction score ([1]; mean of both orientations): -0.357; interaction score [10]: -1.36; interaction score ([11]; mean of both orientations): -1.21; interaction score [12]: 1.93; interaction score [15]: 0.308; interaction score [17]: -1.26; interaction score [19]: -1.49; interaction score [22]: -0.741; interaction score [25]: -1.2; interaction score [26]: -1.04
–,–,–,–,–,–,–,–,–,–,–,–,–,–,–,–,–,–,–,–,SPEDKNAALKEEIQALEEENQALEEKIAQLKYG [P6],interaction score [33]: -2.74; interaction score [34]: -2.56; interaction score [35]: -2.71; interaction score [36]: -2.76; interaction score [37]: -0.929; interaction score [38]: -2.6; interaction score [39]: -2.37; interaction score [40]: -2.62; interaction score [41]: -1.98
–,–,–,–,–,–,–,–,–,–,–,–,–,–,–,–,–,–,–,–,DKNQQLEQKIQELKQENQELEWKIQELKQ [4H3414-bN],interaction score [42]: -0.0983; interaction score [43]: -1.25; interaction score [44]: -1.41; interaction score [45]: -0.982; interaction score [46]: -0.178; interaction score [47]: -0.223; interaction score [48]: -1.04; interaction score [49]: -2.07; interaction score [50]: 0.132; interaction score [51]: -1.04
–,-0.707,–,-1.26,-1.69,–,-1.89,0.526,-1.58,-0.748,-1.96,-0.9,-0.882,-1.08,-1.77,-1.41,-1.2,2.17,0.687,-1.27,DKIAALKAENAALEAEIAALKAENAALEG [4H2699-AA],interaction score [2]: -1.06; interaction score ([11]; mean of both orientations): 1.24
